Data as given in patent US20160304566A1.

Experiments:
human IgG-HRP (human) [1] = assay: ELISA, coated protein, human IgG-HRP, n=12
human IgG-HRP (human) [2] = assay: ELISA, SpA coated, human IgG-HRP, PBS in place of F(ab)2, n=5

Substance: SpA5wt (from UniProt P38507 37-327)
- OD450 nm, Mean value (human IgG-HRP (human) [1]): 0.625 OD

Substance: SpA (252) (from UniProt P38507 37-508)
- OD450 nm, Ave (human IgG-HRP (human) [2]): 0.641 OD
- OD450 nm, Mean value (human IgG-HRP (human) [1]): 0.635 OD

Substance: SpA5 (RRVV) (from UniProt P38507 37-327)
- OD450 nm, Mean value (human IgG-HRP (human) [1]): 0.062 OD
